The record followed here is the DeepSol protein solubility set.

This data set in a line: soluble on expression in E. coli; label from the status in PepcDB or PDB records.
Regarding “MYSGVQIRTGSNPKIRRNKIWGGQNGGILVYNSGLGCIEDNEIFDNAMAGVWIKTDSNPTLRRNKIHDGRDGGICIFNGGRGLLEENDIFRNAQAGVLISTNSHPILRKNRIFDGFAAGIEITNHATATLEGNQIFNNRFGGLFLASGVNVTMKDNKIMNNQDAIEKAVSRGQCLYKISSYTSYPMHDFYRCHTCNTTDRNAICVNCIKKCHQGHDVEFIRHDRFFCDCGAGTLSNPCTLAGEPTHDTDTLYDSAPPIESNTLQHN”, the “soluble on expression in E. coli” value was “soluble”. On to “MYSPESMNSNISSPSPPSSSSLNAPSLADAPEVRSDDGEAETSEPSTSVTAVPMEIVSQASTSAPVNQLLASGIDMSSVIKNNAVLQALLASASAGGFGDNAGLTMSKLLTAALANGSTAVAKRDAGSPRTDIPKKTRLKVFSNGFFMTFDKLSSCQKKYFWRCEYKNTCKARMHTDIVTEKILTFIHEHNHSAPIDEEVRLYGLDPTNIERNRVYIVGNVADPNQRRKIRKQVADREAAAKRLVQQQEEEQQKQQSASSIVAARAAYAQAMQNGSIPTSSGVASFLQSTSATAPMTSHSMLLAQMPFLNNIKTEMSNMVKNEQFTPERYTQHMSPNLPLQTATIAPLIIPTENYDSPSYRQPAIKRKATDLTNEEHDLRRDPMFQPTFELARKLRKLWKGEPNRYPRTTTTPTHHFEFFLSKNDGTDEHLYVPMRINLRDEAHLKEALQDFCGQQCIGMLLFGISPKISVMFNQPMLNNWDNNQFFLLDISNPSRWRLMYVDDQAV”, for which the “soluble on expression in E. coli” value is “not soluble”. Turning to “MYVCHFENCGKAFKKHNQLKVHQFSHTQQLPYECPHEGCDKRFSLPSRLKRHEKVHAGYPCKKDDSCSFVGKTWTLYLKHVAECHQD”, the “soluble on expression in E. coli” value is on record as “soluble”. As for “MYVMTQSGWLEVICGCMFSGKSEELIRRVRLAQFAKQEVKVFKPTIDNRYSEDAVVSHNGNSVIAIPVATPAEMFRYISAATDVVAIDEVQFFSDDIIDVVQTLADGGCRVITAGLDQDFRGEPFGPVPALMAIAESVTKLQAVCTVCGSPASRTQRLINGAPASYDDPVILVGASEAYEPRCRHHHEVPGKPKKRYNRPLAGHTGE”, the “soluble on expression in E. coli” value was “not soluble”. Under “MYYYVNEHEKALADFDKVIELNPKEDKTYYWKGLVYEYLKQYESSLVYLNKAIQLNDKNYKYYELRSLVYKQLREYDKAYSDVNVAIKLNQNNGILYSLRGLLNKYLNKYNDAIIDYNKSIELMPEFIAPYKSLLSIYLQTQNYEAGLEVANKAINIEQSWILYSTRGYLFLMLQSYNEAISDSNRAIKLNSGFADSYLTRGKAYLALKEYKKAIEDFDRAIELDSDNIDKVKQEAYEALAEMGEK” stands “not soluble”.

“NEIKKILIMPTWRDWLNSTYAFDNSDYMKHYLSLINSPKLQALINEYDIEINFYPHYRSQMFFKSFLTDNKSDINYIELGDKTVQELLVEHDLLITDYSSVSFDFSYMKKPVIFYHFDVKKFFRKGILRSIKDTFIGDIAHTEKELISLIEDNIKNPKNMEYQNLSSIFDYTDHHNNQRVYHSILDLIQDNT”: the “soluble on expression in E. coli” value is listed as “not soluble”. “NFMLTQPHSVSESPGKTVTISCTRSSGSIASYYVQWYQQRPGSSPTTVIYEDSQRPSGVPDRFSGSIDSSSNSASLTISGLKTEDEADYYCQSYDSSNVVFGGGTKLTVLGQPKAAPSVTLFPPSSEELQANKATLVCLISDFYPGAVTVAWKADSSPVKAGVETTTPSKQSNNKYAASSYLSLTPEQWKSHRSYSCQVTHEGSTVEKTVAPTECS”: the “soluble on expression in E. coli” value is recorded as “soluble”. Under “NGEEHEQTHRAIFRFVPRHEDELELEVDDPLLVELQAEDYWYEAYNMRTGARGVFPAYYAIEVTKEPEHMA” stands “soluble”; under “NGFDVREGRKLLVGGGSGIVSLYPIADQETDALISAKTRDELIFKDRFPESRRFIATDDGSDGFHGFAHELLQRINIDSYEAIYVCGPEQMMYKVLQVLKGRKVFVQFS”, “not soluble”.

On to “NIPEIENANLKPALKDSVLPDGFYSTTNHPTHVKVNDEWIEVANPKMDAVIVVYPEEKRAETKVIRKVKKGDFVLIGHNGIRVMPPEKSREAGQLFEFMNSEVSSEKPKEAIIKRIAKEMHEIREEYKKTGTGGIAIVGGPAIIHTGGGPALAKMVELGYIQAILAGNALATHDIESALYGTSLGVNIKTAKPVTGGHKHHIYAINAINDAGNIKNAVESGVLKEGIMYQCIKNNIPYVLAGSIRDDGPIPDVITDSMVAQDKMRTTVMDKKMVIMLSTLLHSVATGNLMPSYIKTVCVDIQPSTVTKLMDRGTSQAIGVVTDVGVFLVLLLKELER”, for which the “soluble on expression in E. coli” value is listed as “not soluble”. Turning to “NKDFWIKGMGNFTLAKGRYEVYEEPDYASYGQGYRSRIGQPINFNYGYIAERLFIDENDVANSPSQTSFNGGAMPGDIKYKDLNNDGKITSEDQIFLGYPNQPEITYGFGFSTGYKGFDLSMFFQGNARVSFFIDPRNTSPFVNYDAGGKTGVQQCLDVIAKDHWSEDNRNIYAFWPRLSPTLVENNMQTSTWWMHDGSFIRLKTVELGYTFSQKALKKIGVQSLRLYLTGSNLLTFSKFKLWDAEMGNNGLGYPIQRVYNLGININF”, the “soluble on expression in E. coli” value was “not soluble”. Turning to “NKVNDESVEYFGQRNEFRQASDFMEERISGMTNISIAIKTNESQGIAAPDFLNTIGEFSSWLRDQPETDHVATLADVYKRLNKNMHGDDEAYYLLPQERELAAQYLLLYEMSLPYGLDLNNQINVDKSSIKMVLTVANLGSVELVDLENRIYQWFAEHAPQYQVVASSPSLMFAHIGETN”, the “soluble on expression in E. coli” value is “not soluble”. Regarding “NRANPDPNCCLGVFGLSLYTTERDLREVFSKYGPIADVSIVYDQQSRRSRGFAFVYFENVDDAKEAKERANGMELDGRRIRV”, the “soluble on expression in E. coli” value was “soluble”. To “NSLTTHYRRSQLIALPVPGGKAKVEYCYAVNVPGDREIVTHSFAEWAVGDFNRQKETVLCDKLTAGSKITTECPSESFVGSRKHNGLSTSAKVMSMNASARSNSFVVNSGK” belongs “not soluble”; to “NSNNKRAPYWTNTEKMEKRLHAVPAANTVKFRCPAGGNPMPTMRWLKNGKEFKQEHRIGGYKVRNQHWSLIMESVVPSDKGNYTCVVENEYGSINHTYHLDVVERSPHRPILQAGLPANASTVVGGDVEFVCKVYSDAQPHIQWIKHVEKNGSKYGPDGLPYLKVLKAAGVNTTDKEIEVLYIRNVTFEDAGEYTCLAGNSIGISFHSAWLTVLPAPGRE”, “soluble”. To “NTEEKFVRAEEKAKRSKMLIDMKSEQYNMITEKIEKTRKSRHDIHHHINVVYQLAKENKIEQLIEYLEEYNKIYSTKEPMVYCNNSTVDAILNHYILLAKDNGIEVHLNVALPEELKIRDTDLCIVIGNLLENAIEASEKEENKRIKLRINRSNEYICMLVSNLYNGEIKKGHSGYYSRKREFKDTGIGLSSVSAVVEKYDGRMEVDHTNGEFNVFIMMANISSNLT” belongs “not soluble”; to “NTKDEAYNVATQATYAVAEQQTGSGDVVAVDDNVQMSKVSTVTINVLGNDIIADGVSVEISAMSAPSKGTVKLLSDGSIQYTPAKRFKNQDSFS”, “not soluble”.

As to “PAMADTIKLRIIETTDIHTNVMDYDYYKDQPSQQIGLSRAATLVKQAKSEVENSVLVDNGDLIQGSPMGDYMAAKGIQTGEVHPVYKAMNQLHYDVGNIGNHEFNYGLDFLQNTLAGANFPYINANVFDKKTGEHYFQPYLIKTHSFKDTDGEVHQVKVGYIGFVPPQIMVWDKKNLEGNVVAKDIKETAEKLIPQMKKEGADIIVAIPHSGVSTDPYKLGAENSVYYLTQVKGIDAIAFGHSHAVFPGKGFENLQGVDNNKGTINGVTAVMPGRWGSHVGVMDLVIEQKDGQWQVVEGQSEARPIFDKAAKKSLAEADQCIIRALEDDHKGTREFVNQ”, the “soluble on expression in E. coli” value was “not soluble”. To “PDKEYHTLHWIIMGALSCATRTVQIMTPYFIPDRSLVSALVTTALRGVEVTLVLPEKNNLPFVHWATRAYLWELIQQGIRVFYQPPPFAHTKLFIVDGLWSMIGSANLDPRSLRLNFELNLEVYDRELAGTLSRHFAVTVARSRQVSLTEMDGR” belongs “not soluble”; to “PDLTAALRDVRQQYESVAAKNLQEAEEWYKSKFADLSEAANRNNDALRQAKQESTEYRRQVQSLTCEVDALK”, “soluble”.

For “PFLELDTNLPANRVPAGLEKRLCAAAASILGKPADRVNVTVRPGLAMALSGSTEPCAQLSISSIGVVGTAEDNRSHSAHFFEFLTKELALGQDRILIRFFPLESWQIGKIGTVMTFL”, the “soluble on expression in E. coli” value was “soluble”.
